# In IntAct's records for PubMed 31515488:
# B1: Microtubule-associated tumor suppressor candidate 2 (Homo sapiens), Q5JR59-3 (parent)
# chain: MGHCCCKPYNCLQCLDKTNESALVKEKELSIELANIRDEVAFHTAKCEKLQKEKEELERRFEDEVKRLGWQQQAELQELEERLQLQFEAEMARLQEEHGDQLLSIRCQHQEQVEDLTASHDAALLEMENNHTVAITILQDDHDHKVQELMSTHELEKKELEENFEKLRLSLQDQVDTLTFQSQSLRDRARRFEEALRKNTEEQLEIALAPYQHLEEDMKSLKQVLEMKNQQIHEQEKKILELEKLAEKNIILEEKIQVLQQQNEDLKARIDQNTVVTRQLSEENANLQEYVEKETQEKKRLSRTNEELLWKLQTGDPTSPIKLSPTSPVYRGSSSGPSSPARVSTTPR
# partner: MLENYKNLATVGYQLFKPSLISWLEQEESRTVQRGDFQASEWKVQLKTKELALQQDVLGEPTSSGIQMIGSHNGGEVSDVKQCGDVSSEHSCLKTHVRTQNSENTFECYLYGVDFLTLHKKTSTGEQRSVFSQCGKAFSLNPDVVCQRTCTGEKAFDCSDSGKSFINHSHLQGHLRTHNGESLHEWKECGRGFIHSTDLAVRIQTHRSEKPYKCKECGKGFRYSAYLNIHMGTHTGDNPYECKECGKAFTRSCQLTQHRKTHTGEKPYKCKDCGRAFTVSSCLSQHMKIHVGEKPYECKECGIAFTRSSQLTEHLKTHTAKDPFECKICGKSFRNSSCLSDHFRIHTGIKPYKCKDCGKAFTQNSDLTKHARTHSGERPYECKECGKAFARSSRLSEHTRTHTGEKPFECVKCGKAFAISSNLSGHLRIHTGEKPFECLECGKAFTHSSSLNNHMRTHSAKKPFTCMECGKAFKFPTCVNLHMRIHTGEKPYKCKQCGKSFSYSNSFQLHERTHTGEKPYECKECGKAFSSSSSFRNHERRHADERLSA
# B2: Tektin-4 (Homo sapiens), Q8WW24 (parent)
# chain: MAQTVPPCELPCKEYDVARNTGAYTSSGLATASFRTSKYLLEEWFQNCYARYHQAFADRDQSERQRHESQQLATETQALAQRTQQDSTRTVGERLQDTHSWKSELQREMEALAAETNLLLAQKQRLERALDATEVPFSITTDNLQCRERREHPNLVRDHVETELLKEAELIRNIQELLKRTIMQAVSQIRLNREHKETCEMDWSDKMEAYNIDETCGRHHSQSTEVQAHPYSTTFQESASTPETRAKFTQDNLCRAQRERLASANLRVLVDCILRDTSEDLRLQCDAVNLAFGRRCEELEDARYKLHHHLHKTLREITDQEHNVAALKQAIKDKEAPLHVAQTRLYLRSHRPNMELCRDAAQFRLLSEVEELNMSLTALREKLLEAEQSLRNLEDIHMSLEKDIAAMTNSLFIDRQKCMAHRTRYPTILQLAGYQ
# Variants of: B1
# Details: with zn266_human ZNF266, Q14584
row,Variant,effect of a mutation on the interaction
1,MGHCCCKPYNCLQCLDKTNESALVKEKELSIELANIRDEVAFHTAKCEKLQKEKEELERRFEDEVKRLGWQQQAELQELEERLQLQFEVEMARLQEEHGDQLLSIRCQHQEQVEDLTASHDAALLEMENNHTVAITILQDDHDHKVQELMSTHELEKKELEENFEKLRLSLQDQVDTLTFQSQSLRDRARRFEEALRKNTEEQLEIALAPYQHLEEDMKSLKQVLEMKNQQIHEQEKKILELEKLAEKNIILEEKIQVLQQQNEDLKARIDQNTVVTRQLSEENANLQEYVEKETQEKKRLSRTNEELLWKLQTGDPTSPIKLSPTSPVYRGSSSGPSSPARVSTTPR [A89V],with no effect

# Variants of: B2
# Details: with trip6_human TRIP6, Q15654
# Chain of trip6_human TRIP6, Q15654 (Q15654 whole entry): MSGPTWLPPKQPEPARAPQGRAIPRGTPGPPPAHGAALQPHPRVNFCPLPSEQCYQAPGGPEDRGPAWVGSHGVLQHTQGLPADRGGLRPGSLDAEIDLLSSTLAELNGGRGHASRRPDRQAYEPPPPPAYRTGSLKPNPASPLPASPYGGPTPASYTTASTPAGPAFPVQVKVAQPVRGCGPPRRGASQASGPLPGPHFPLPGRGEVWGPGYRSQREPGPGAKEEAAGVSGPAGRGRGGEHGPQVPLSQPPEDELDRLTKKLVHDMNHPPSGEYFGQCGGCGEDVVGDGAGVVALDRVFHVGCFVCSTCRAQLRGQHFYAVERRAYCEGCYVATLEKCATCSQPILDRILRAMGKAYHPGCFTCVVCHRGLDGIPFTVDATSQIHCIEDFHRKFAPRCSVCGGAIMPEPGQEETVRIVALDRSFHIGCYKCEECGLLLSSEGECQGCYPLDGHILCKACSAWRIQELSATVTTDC
row,Variant,effect of a mutation on the interaction
1,MAQTVPPCELPCKEYDVARNTGAYTSSGLATASFRTSKYLLEEWFQNCYARYHQAFADRDQSERQRHESQQLATETQALAQRTQQDSTRTVGERLQDTHSWKSELQREMEALAAETNLLLAQKQRLERALDATEVPFSITTDNLQCRERREHPNLVRDHVETELLKEAELIRNIQELLKRTIMQAVSQIRLNREHKETCEMDWSDKMEAYNIDETCGRHHSQSTEVQAHPYSTTFQESASTPETRAKFTQDNLCCAQRERLASANLRVLVDCILRDTSEDLRLQCDAVNLAFGRRCEELEDARYKLHHHLHKTLREITDQEHNVAALKQAIKDKEAPLHVAQTRLYLRSHRPNMELCRDAAQFRLLSEVEELNMSLTALREKLLEAEQSLRNLEDIHMSLEKDIAAMTNSLFIDRQKCMAHRTRYPTILQLAGYQ [R255C],with no effect
2,MAQTVPPCELPCKEYDVARNTGAYTSSGLATASFRTSKYLLEEWFQNCYARYHQAFADRDQSERQRHESQQLATETQALAQCTQQDSTRTVGERLQDTHSWKSELQREMEALAAETNLLLAQKQRLERALDATEVPFSITTDNLQCRERREHPNLVRDHVETELLKEAELIRNIQELLKRTIMQAVSQIRLNREHKETCEMDWSDKMEAYNIDETCGRHHSQSTEVQAHPYSTTFQESASTPETRAKFTQDNLCRAQRERLASANLRVLVDCILRDTSEDLRLQCDAVNLAFGRRCEELEDARYKLHHHLHKTLREITDQEHNVAALKQAIKDKEAPLHVAQTRLYLRSHRPNMELCRDAAQFRLLSEVEELNMSLTALREKLLEAEQSLRNLEDIHMSLEKDIAAMTNSLFIDRQKCMAHRTRYPTILQLAGYQ [R82C],with no effect
3,MAQTVPPCELPCKEYDVARNTGAYTSSGLATASFRTSKYLLEEWFQNCYARYHQAFADRDQSERQRHESQQLATETQALAQRTQQDSTRTVGERLQDTHSWKSELQREMEALAAETNLLLAQKQRLERALDATEVPFSITTDNLQCRERREHPNLVRDHVETELLKEAELIRNIQELLKRTIMQAVSQIRLNREHKETCEMDWSDKMEAYNIDETCGRHHSQSTEVQAHPYSTTFQESASTPETRAKFTQDNLCRAQRERLASANLRVLVDSILRDTSEDLRLQCDAVNLAFGRRCEELEDARYKLHHHLHKTLREITDQEHNVAALKQAIKDKEAPLHVAQTRLYLRSHRPNMELCRDAAQFRLLSEVEELNMSLTALREKLLEAEQSLRNLEDIHMSLEKDIAAMTNSLFIDRQKCMAHRTRYPTILQLAGYQ [C272S],with no effect

# Variants of: B2
# Details: with maga4_human MAGEA4, P43358
# Chain of maga4_human MAGEA4, P43358 (P43358 whole entry): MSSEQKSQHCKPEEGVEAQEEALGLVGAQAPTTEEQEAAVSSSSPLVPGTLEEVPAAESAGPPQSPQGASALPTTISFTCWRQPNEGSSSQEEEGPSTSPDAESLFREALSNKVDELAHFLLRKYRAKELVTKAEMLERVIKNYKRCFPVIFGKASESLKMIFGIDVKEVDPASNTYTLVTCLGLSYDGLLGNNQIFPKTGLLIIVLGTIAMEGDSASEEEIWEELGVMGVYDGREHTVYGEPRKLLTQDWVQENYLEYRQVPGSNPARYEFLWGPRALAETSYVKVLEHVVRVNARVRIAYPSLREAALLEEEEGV
row,Variant,effect of a mutation on the interaction
1,MAQTVPPCELPCKEYDVARNTGAYTSSGLATASFRTSKYLLEEWFQNCYARYHQAFADRDQSERQRHESQQLATETQALAQRTQQDSTRTVGERLQDTHSWKSELQREMEALAAETNLLLAQKQRLERALDATEVPFSITTDNLQCRERREHPNLVRDHVETELLKEAELIRNIQELLKRTIMQAVSQIRLNREHKETCEMDWSDKMEAYNIDETCGRHHSQSTEVQAHPYSTTFQESASTPETRAKFTQDNLCCAQRERLASANLRVLVDCILRDTSEDLRLQCDAVNLAFGRRCEELEDARYKLHHHLHKTLREITDQEHNVAALKQAIKDKEAPLHVAQTRLYLRSHRPNMELCRDAAQFRLLSEVEELNMSLTALREKLLEAEQSLRNLEDIHMSLEKDIAAMTNSLFIDRQKCMAHRTRYPTILQLAGYQ [R255C],with no effect
2,MAQTVPPCELPCKEYDVARNTGAYTSSGLATASFRTSKYLLEEWFQNCYARYHQAFADRDQSERQRHESQQLATETQALAQCTQQDSTRTVGERLQDTHSWKSELQREMEALAAETNLLLAQKQRLERALDATEVPFSITTDNLQCRERREHPNLVRDHVETELLKEAELIRNIQELLKRTIMQAVSQIRLNREHKETCEMDWSDKMEAYNIDETCGRHHSQSTEVQAHPYSTTFQESASTPETRAKFTQDNLCRAQRERLASANLRVLVDCILRDTSEDLRLQCDAVNLAFGRRCEELEDARYKLHHHLHKTLREITDQEHNVAALKQAIKDKEAPLHVAQTRLYLRSHRPNMELCRDAAQFRLLSEVEELNMSLTALREKLLEAEQSLRNLEDIHMSLEKDIAAMTNSLFIDRQKCMAHRTRYPTILQLAGYQ [R82C],with no effect
3,MAQTVPPCELPCKEYDVARNTGAYTSSGLATASFRTSKYLLEEWFQNCYARYHQAFADRDQSERQRHESQQLATETQALAQRTQQDSTRTVGERLQDTHSWKSELQREMEALAAETNLLLAQKQRLERALDATEVPFSITTDNLQCRERREHPNLVRDHVETELLKEAELIRNIQELLKRTIMQAVSQIRLNREHKETCEMDWSDKMEAYNIDETCGRHHSQSTEVQAHPYSTTFQESASTPETRAKFTQDNLCRAQRERLASANLRVLVDSILRDTSEDLRLQCDAVNLAFGRRCEELEDARYKLHHHLHKTLREITDQEHNVAALKQAIKDKEAPLHVAQTRLYLRSHRPNMELCRDAAQFRLLSEVEELNMSLTALREKLLEAEQSLRNLEDIHMSLEKDIAAMTNSLFIDRQKCMAHRTRYPTILQLAGYQ [C272S],with no effect

# Variants of: B2
# Details: with atg5_human ATG5, Q9H1Y0
# Chain of atg5_human ATG5, Q9H1Y0 (Q9H1Y0 whole entry): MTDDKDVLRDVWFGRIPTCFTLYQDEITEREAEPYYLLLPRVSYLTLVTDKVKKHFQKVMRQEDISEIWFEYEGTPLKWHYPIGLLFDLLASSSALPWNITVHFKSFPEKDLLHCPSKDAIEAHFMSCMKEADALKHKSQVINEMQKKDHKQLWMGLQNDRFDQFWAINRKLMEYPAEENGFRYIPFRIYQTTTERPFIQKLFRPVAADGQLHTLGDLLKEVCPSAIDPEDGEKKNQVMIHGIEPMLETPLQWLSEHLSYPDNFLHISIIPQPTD
row,Variant,effect of a mutation on the interaction
1,MAQTVPPCELPCKEYDVARNTGAYTSSGLATASFRTSKYLLEEWFQNCYARYHQAFADRDQSERQRHESQQLATETQALAQRTQQDSTRTVGERLQDTHSWKSELQREMEALAAETNLLLAQKQRLERALDATEVPFSITTDNLQCRERREHPNLVRDHVETELLKEAELIRNIQELLKRTIMQAVSQIRLNREHKETCEMDWSDKMEAYNIDETCGRHHSQSTEVQAHPYSTTFQESASTPETRAKFTQDNLCCAQRERLASANLRVLVDCILRDTSEDLRLQCDAVNLAFGRRCEELEDARYKLHHHLHKTLREITDQEHNVAALKQAIKDKEAPLHVAQTRLYLRSHRPNMELCRDAAQFRLLSEVEELNMSLTALREKLLEAEQSLRNLEDIHMSLEKDIAAMTNSLFIDRQKCMAHRTRYPTILQLAGYQ [R255C],with no effect
2,MAQTVPPCELPCKEYDVARNTGAYTSSGLATASFRTSKYLLEEWFQNCYARYHQAFADRDQSERQRHESQQLATETQALAQCTQQDSTRTVGERLQDTHSWKSELQREMEALAAETNLLLAQKQRLERALDATEVPFSITTDNLQCRERREHPNLVRDHVETELLKEAELIRNIQELLKRTIMQAVSQIRLNREHKETCEMDWSDKMEAYNIDETCGRHHSQSTEVQAHPYSTTFQESASTPETRAKFTQDNLCRAQRERLASANLRVLVDCILRDTSEDLRLQCDAVNLAFGRRCEELEDARYKLHHHLHKTLREITDQEHNVAALKQAIKDKEAPLHVAQTRLYLRSHRPNMELCRDAAQFRLLSEVEELNMSLTALREKLLEAEQSLRNLEDIHMSLEKDIAAMTNSLFIDRQKCMAHRTRYPTILQLAGYQ [R82C],with no effect
